The source of these data is patent publication US20060264369, “Aptamers to von Willebrand Factor and their use as thrombotic disease therapeutics” (published 2006).

In the data set the target is von Willebrand factor full length (Homo sapiens, UniProt P04275 SEQ:764-2813). Description: filter; 20 nM protein. The settings on record: tags: Calbiochem 681300. How it is done:
When a significant positive ratio of binding of DNA in the presence of human or rabbit vWF A1 domain versus in the absence of protein was seen, the pools were cloned using the TOPO TA cloning kit (Invitrogen Cat.# 45-0641, Carlsbad, Calif.) according to the manufacturer's instructions. […] All unique clones were assayed twice in a 3-point dot blot screen (no protein target control, 20 nM full length human vWF (Calbiochem Cat.# 681300, La Jolla, Calif.), or 20 nM rabbit vWF A1 domain. The data is presented in the third and fourth columns of Table 17 below as the ratio of the fraction of the aptamer bound to the nitrocellulose in the presence of the target protein to the fraction of aptamer bound in the absence of the target protein.

B1: AMX236.H1 (ssDNA)
DNA: CTACCTACGATCTGACTAGCCTCAGATTGACTCCGGCCGACTTGTTTTAATCTTCTGAGTGCTTACTCTCATGTAGTTCC
As to B1, the binding signal is 1.1 ratio to no protein.

B2: AMX236.G1 (ssDNA)
DNA: CTACCTACGATCTGACTAGCCTCAGATTGACTCCGGCTGACTTGTTTTAATCTTCTGAGTGCTTACTCTCATGTAGTTCC
Consider B2, for which the binding signal was 1.47 ratio to no protein.

B3: AMX237.F10 (ssDNA)
DNA: CTACCTACGATCTGACTAGCGTGCAGTGCCCATTCCAGGCCGTGCGGTATCCTCCGTCACGCTTACTCTCATGTAGTTCC
For the molecule B3, the binding signal is 2.9 ratio to no protein.

B4: AMX236.H2 (ssDNA)
DNA: CTACCTACGATCTGACTAGCGTGCAGTGCCTATCCCAGGCCGTGCGGTAGCCTCCGTCACGCTTACTCTCATGTAGTTCC
Consider B4, for which the binding signal is 2.12 ratio to no protein.

B5: AMX237.C5 (ssDNA)
DNA: CTACCTACGATCTGACTAGCGTGCAGTGCCTATCTCAGGCCGTGCGGTATCCTCCGTCACGCTTACTCTCATGTAGTTCC
With B5, the binding signal was 2.55 ratio to no protein.

B6: AMX237.F9 (ssDNA)
DNA: CTACCTACGATCTGACTAGCTTGGTAGCGATTCTGTGGAGCTGCGGTTTGGTCGACGTCAGCTTACTCTCATGTAGTTCC
Take B6: the binding signal is 2.21 ratio to no protein.

B7: AMX236.C12 (ssDNA)
DNA: CTACCTACGATCTGACTAGCTTGGTAGCGACTCCGTGGAGCTGCGGTTTGGTCGACGTCAGCTTACTCTCATGTAGTTCC
For B7, the binding signal was 1.99 ratio to no protein.

B8: AMX237.B1 (ssDNA)
DNA: CTACCTACGATCTGACTAGCTTGGTAGCGACACAGTGGAGCTGCGGTTTGGTCGACGTCAGCTTACTCTCATGTAGTTCC
As to B8, the binding signal was 2 ratio to no protein.

B9: AMX236.A11 (ssDNA)
DNA: CTACCTACGATCTGACTAGCTTGGTAGCGACTCTGTGGAGCTGCGGTCTGGCCGACGTCAGCTTACTCTCATGTAGTTCC
Take B9: the binding signal is 2.02 ratio to no protein.

B10: AMX237.G7 (ssDNA)
DNA: CTACCTACGATCTGACTAGCTTGGTAGCGACTTTGTGGAGCTGCGGTTTGGTCGACGTCAGCTTACTCTCATGTAGTTCC
In the case of B10, the binding signal was 2.68 ratio to no protein.

B11: AMX237.H10 (ssDNA)
DNA: CTACCTACGATCTGACTAGCTTGGTAGCGACTCAGAGGAGCTGCGGTTTGGTCGACGTCAGCTTACTCTCATGTAGTTCC
For B11, the binding signal was 1.71 ratio to no protein.

B12: AMX237.F12 (ssDNA)
DNA: CTACCTACGATCTGACTAGCTTGGTAGCGATTTTGTGGAGCTGCGGTTTGGTCGACGTCAGCTTACTCTCATGTAGTTCC
Turning to B12, the binding signal is 1.95 ratio to no protein.

B13: AMX237.C9 (ssDNA)
DNA: CTACCTACGATCTGACTAGCTTGGTAGTGACTTTGTGGAGCTGCGGTTTGGTCGACGTCAGCTTACTCTCATGTAGTTCC
Take B13: the binding signal was 2.05 ratio to no protein.

B14: AMX237.D5 (ssDNA)
DNA: CTACCTACGATCTGACTAGCTTGGTAGCGACACTGTGGAGCTGCGGTTTGGTTGACGTCAGCTTACTCTCATGTAGTTCC
For the molecule B14, the binding signal was 1.41 ratio to no protein.

B15: AMX236.G4 (ssDNA)
DNA: CTACCTACGATCTGACTAGCTTGGTAGCGACTTTGTGGAGATGCGGTTTGGTTGACGTCAGCTTACTCTCATGTAGTTCC
Turning to B15, the binding signal was 1.7 ratio to no protein.

B16: AMX236.B8 (ssDNA)
DNA: CTACCTACGATCTGACTAGCTTGGTAGCGACTCTGTGGAGCTGCGGTCTGGTCGACGTCAGCTTACTCTCATGTAGTTCC
Regarding B16, the binding signal was 1.66 ratio to no protein.

B17: AMX236.A12 (ssDNA)
DNA: CTACCTACGATCTGACTAGCTTGGTAGCGACTCTGTGGAGCTGCGGTTTGGTCGACGTCAGCTTACTCTCATGTAGTTCC
B17: the binding signal is 2.64 ratio to no protein.

B18: AMX238.E7 (ssDNA)
DNA: CTACCTACGATCTGACTAGCGTGCAGTGCCTATTTTAGGCCGTGCGGTGCCTCCGTCACGCTTACTCTCATGTAGTTCC
Take B18: the binding signal was 3.02 ratio to no protein.

B19: AMX238.F3 (ssDNA)
DNA: CTACCTACGATCTGACTAGCGTGCAGTGCCTATTTTAGGTCGTGCGGGGCCTCCGTCACGCTTACTCTCATGTAGTTCC
Consider B19, for which the binding signal is 2.83 ratio to no protein.

B20: AMX237.C11 (ssDNA)
DNA: CTACCTACGATCTGACTAGCGTGCAGTGCCTATTCTAGGCCGTGCGGTGCCTCCGTCATGCTTACTCTCATGTAGTTCC
B20: the binding signal is 2.04 ratio to no protein.

B21: AMX238.F2 (ssDNA)
DNA: CTACCTACGATCTGACTAGCATGCAGTGCCCATTCTAGGCCGTGCGGTGCCTCCGTCATGCTTACTCTCATGTAGTTCC
Take B21: the binding signal is 2.84 ratio to no protein.

B22: AMX237.E9 (ssDNA)
DNA: CTACCTACGATCTGACTAGCTCCAGTGTTTTGTCTAATAACCGTGCGGTGCCTCCGTGAGCTTACTCTCATGTAGTTCC
With B22, the binding signal is 2.13 ratio to no protein.

B23: AMX238.G5 (ssDNA)
DNA: CTACCTACGATCTGACTAGCTCCAGTGTTTTATTCAATAACCGTGCGGTGCCTCCGTGAGCTTACTCTCATGTAGTTCC
Take B23: the binding signal is 3.06 ratio to no protein.

B24: AMX237.H5 (ssDNA)
DNA: CTACCTACGATCTGACTAGCTCCAGTGTTTCATTTAATAACCGTGCGGTGCCTCCGTGAGCTTACTCTCATGTAGTTCC
Turning to B24, the binding signal is 1.63 ratio to no protein.

B25: AMX237.A2 (ssDNA)
DNA: CTACCTACGATCTGACTAGCTCCAGTGTTTCATCCAATAACCGTGCGGTGCCTCCGTGAGCTTACTCTCATGTAGTTCC
For the molecule B25, the binding signal is 2.6 ratio to no protein.

B26: AMX237.B11 (ssDNA)
DNA: CTACCTACGATCTGACTAGCTCCAGTGTTTTATCTAATAACCGTGCGGTGCCTCCGTGAGCTTACTCTCATGTAGTTCC
Turning to B26, the binding signal is 2.87 ratio to no protein.

B27: AMX238.D5 (ssDNA)
DNA: CTACCTACGATCTGACTAGCTCCAGTGTTTTATTCAATAACCGTGCGGTGTCTCCGTGAGCTTACTCTCATGTAGTTCC
As for B27, the binding signal was 1.46 ratio to no protein.

B28: AMX238.D12 (ssDNA)
DNA: CTACCTACGATCTGACTAGCTCCAGTGTTTCATTCAATAACCGTGCGGTGCCTCCGTGAGCTTACTCTCATGTAGTTCC
As to B28, the binding signal was 2.4 ratio to no protein.

B29: AMX238.D8 (ssDNA)
DNA: CTACCTACGATCTGACTAGCTCCAGTGTTTTATCCAACAACCGTGCGGTGCCTCCGTGAGCTTACTCTCATGTAGTTCC
Regarding B29, the binding signal was 2.02 ratio to no protein.

B30: AMX237.A11 (ssDNA)
DNA: CTACCTACGATCTGACTAGCTCCAGTGTTTTATCCAATAACCGTGCGGTGCCTCCGTGAGCTTACTCTCATGTAGTTCC
Take B30: the binding signal was 2.66 ratio to no protein.

B31: AMX237.C4 (ssDNA)
DNA: CTACCTACGATCTGACTAGCTTTCAGTCTTCCACATTTATAGGGTTTGGCATTGGGTCTGGCTTACTCTCATGTAGTTCC
With B31, the binding signal is 0.97 ratio to no protein.

B32: AMX237.F5 (ssDNA)
DNA: CTACCTACGATCTGACTAGCTTTTAGTCTTCCACATTTATAGGGTTTGGCATTGGGTCTGGCTTACTCTCATGTAGTTCC
On to B32, for which the binding signal is 0.99 ratio to no protein.

B33: AMX238.H11 (ssDNA)
DNA: CTACCTACGATCTGACTAGCTTTCAGTCTTTCACATTTATAGGGTTTGGCATTGGGTCTGGCTTACTCTCATGTAGTTCC
On to B33, for which the binding signal is 0.98 ratio to no protein.

B34: AMX237.E5 (ssDNA)
DNA: CTACCTACGATCTGACTAGCTTTCAGTCTTCTACATTTATAGGGTTTGGCATTGGGTCTGGCTTACTCTCATGTAGTTCC
For the molecule B34, the binding signal was 0.97 ratio to no protein.

B35: AMX237.F1 (ssDNA)
DNA: CTACCTACGATCTGACTAGCTTTCAGTCTTCCACGTTTATAGGGTTTGGCATTGGGTCTGGCTTACTCTCATGTAGTTCC
For the molecule B35, the binding signal is 0.98 ratio to no protein.

B36: AMX237.G2 (ssDNA)
DNA: CTACCTACGATCTGACTAGCTTTCAGTCTTTCATATTTATAGGGTTTGGCATTGGGTCTGGCTTACTCTCATGTAGTTCC
For B36, the binding signal is 1.02 ratio to no protein.

B37: AMX236.B3 (ssDNA)
DNA: CTACCTACGATCTGACTAGCCTTACCTATTCCCTTCTGCGGAATACGTCGAGTACTATGCTTACTCTCATGTAGTTCC
For the molecule B37, the binding signal was 1.54 ratio to no protein.

B38: AMX238.G4 (ssDNA)
DNA: CTACCTACGATCTGACTAGCTTGTCGCACTTTTGGTTGGTCTGGTTGGTTCTAAGTGCGCTTACTCTCATGTAGTTCC
For B38, the binding signal was 1.09 ratio to no protein.
